Experimental data from patent US20140241984A1 (UNITED ARAB EMIRATES UNIVERSITY, published 2014).

T1: IAPP fibrils (UniProt P10997 34-70)
T1 construct: Amyloid fibrils of IAPP spotted in the dot blot; also called islet amyloid polypeptide
T1 peptide (looked up): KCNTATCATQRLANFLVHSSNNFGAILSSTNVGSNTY

T2: fibrils of NAC (61-78) (human)
T2 construct: also called NAC (61-78) (F)
T2 peptide: EQVTNVGGAVVTGVTAVA

T3: IAPP monomers (UniProt P10997 34-70)
T3 peptide (looked up): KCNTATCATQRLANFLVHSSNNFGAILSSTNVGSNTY

T4: α-synuclein peptide 7 (43-56) (human)
T4 construct: also called Peptide No. 7
T4 peptide: KTKEGVVHGVATVA

T5: α-synuclein peptide 17 (113-126) (human)
T5 construct: also called Peptide No. 17
T5 peptide: LEDMPVDPDNEAYE

T6: α-synuclein peptide 10 (64-77) (human)
T6 construct: also called Peptide No. 10
T6 peptide: TNVGGAVVTGVTAV

T7: α-synuclein peptide 13 (85-98) (human)
T7 construct: also called Peptide No. 13
T7 peptide: AGSIAAATGFVKKD

T8: α-synuclein peptide 3 (15-28) (human)
T8 construct: also called Peptide No. 3
T8 peptide: VVAAAEKTKQGVAE

T9: α-synuclein peptide 6 (36-49) (human)
T9 construct: also called Peptide No. 6
T9 peptide: GVLYVGSKTKEGVV

T10: α-synuclein peptide 11 (71-84) (human)
T10 construct: also called Peptide No. 11
T10 peptide: VTGVTAVAQKTVEG

T11: α-synuclein peptide 18 (120-133) (human)
T11 construct: also called Peptide No. 18
T11 peptide: PDNEAYEMPSEEGY

T12: α-synuclein peptide 14 (92-105) (human)
T12 construct: also called Peptide No. 14
T12 peptide: TGFVKKDQLGKNEE

T13: α-synuclein peptide 16 (106-119) (human)
T13 construct: also called Peptide No. 16
T13 peptide: GAPQEGILEDMPVD

T14: α-synuclein peptide 15 (99-112) (human)
T14 construct: also called Peptide No. 15
T14 peptide: QLGKNEEGAPQEGI

T15: α-synuclein peptide 1 (1-14) (human)
T15 construct: also called Peptide No. 1
T15 peptide: MDVFMKGLSKAKEG

T16: α-synuclein peptide 9 (57-70) (human)
T16 construct: also called Peptide No. 9
T16 peptide: EKTKEQVTNVGGAV

T17: α-synuclein peptide 12 (78-91) (human)
T17 construct: also called Peptide No. 12
T17 peptide: AQKTVEGAGSIAAA

T18: α-synuclein peptide 8 (50-63) (human)
T18 construct: also called Peptide No. 8
T18 peptide: HGVATVAEKTKEQV

T19: α-synuclein peptide 2 (8-21) (human)
T19 construct: also called Peptide No. 2
T19 peptide: LSKAKEGVVAAAEK


Legend:
β-synuclein fibrils = β-synuclein fibrils (UniProt Q16143 1-134); assay: dot blot
β-synuclein fibrils, sequence (Q16143 whole entry): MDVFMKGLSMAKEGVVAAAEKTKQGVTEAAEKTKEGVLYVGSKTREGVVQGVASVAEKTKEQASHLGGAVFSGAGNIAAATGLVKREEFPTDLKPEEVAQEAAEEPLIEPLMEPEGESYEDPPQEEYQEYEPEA
Method: (§1) The membranes were blocked with 5% skimmed milk in PBST (PBS containing 0.05% Tween) and incubated for 1 h at room temperature. […] The membranes were washed and incubated with either 1/20000 diluted goat anti-mouse IgG-HRP (Jackson ImmunoResearch) or 1/10000 diluted goat anti-rabbit IgG-HRP (Jackson Immunoresearch) for 1 h at room temperature. The blots were then developed with Super signal West Pico chemiluminescent substrate.
(§2) C) To test the cross reactivity of our conformational monoclonal antibodies to different fragments of α-synuclein. […] The membranes were washed before incubating with either 1/20000 diluted goat anti-mouse IgG-HRP conjugate (Jackson Immunoresearch) or 1/300000 diluted chicken anti-goat IgG-HRP conjugate (Santa Cruz Biotechnology) for 1 h at room temperature. The blots were then developed with Super signal West Pico chemiluminescent substrate.

IAPP fibrils = target: T1, IAPP fibrils; assay: dot blot
Method: as §1, §2

β-synuclein monomers = β-synuclein monomers (UniProt Q16143 1-134); assay: dot blot
β-synuclein monomers, sequence (Q16143 whole entry): as above
Method: as §1, §2

A-beta monomers = target: T20, A-beta monomers (UniProt P05067 672-713, limits assumed); assay: dot blot
T20 construct: also called β-amyloid monomers
Method: as §1, §2

fibrils of NAC (61-78) = target: T2, fibrils of NAC (61-78); assay: dot blot
Method: as §1, §2

A-beta fibrils = target: T21, A-beta fibrils (UniProt P05067 672-713, limits assumed); assay: dot blot
T21 construct: Amyloid fibrils of A-beta spotted in the dot blot; also called β-amyloid
Method: as §1, §2

IAPP monomers = target: T3, IAPP monomers; assay: dot blot
Method: as §1, §2

γ-synuclein fibrils = γ-synuclein fibrils (UniProt O76070 1-127); assay: dot blot
γ-synuclein fibrils, sequence (O76070 whole entry): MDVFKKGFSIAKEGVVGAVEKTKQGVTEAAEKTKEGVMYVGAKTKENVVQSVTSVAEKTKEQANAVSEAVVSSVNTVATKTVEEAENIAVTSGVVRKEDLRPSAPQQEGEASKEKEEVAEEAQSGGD
Method: as §1, §2

fibrils of NAC (61-95) = target: T22, fibrils of NAC (61-95) (human); assay: dot blot
T22 construct: also called NAC region (61-95) (F)
Method: as §1, §2

γ-synuclein monomers = γ-synuclein monomers (UniProt O76070 1-127); assay: dot blot
γ-synuclein monomers, sequence (O76070 whole entry): as above
Method: as §1, §2

[1] = target: T4, α-synuclein peptide 7 (43-56); assay: pepscan ELISA
Method: (§3) To confirm the pepscan results using dot blot the mAbs were also tested by Pepscan using ELISA. […] The plate was washed with PBST and 50 μl of substrate (SuperSignal ELISA Femto Maximum Sensitivity Substrate, Thermo Scientific) was added and immediately read the plate using Victor X3 microtiter plate reader. After the ELISA signals were measured, the plate was also exposed onto X-ray film to develop the spots.

[2] = target: T5, α-synuclein peptide 17 (113-126); assay: pepscan ELISA
Method: as §3

[3] = target: T6, α-synuclein peptide 10 (64-77); assay: pepscan ELISA
Method: as §3

[4] = target: T7, α-synuclein peptide 13 (85-98); assay: pepscan ELISA
Method: as §3

[5] = target: T8, α-synuclein peptide 3 (15-28); assay: pepscan ELISA
Method: as §3

[6] = target: T9, α-synuclein peptide 6 (36-49); assay: pepscan ELISA
Method: as §3

[7] = target: T10, α-synuclein peptide 11 (71-84); assay: pepscan ELISA
Method: as §3

[8] = target: T11, α-synuclein peptide 18 (120-133); assay: pepscan ELISA
Method: as §3

[9] = target: T12, α-synuclein peptide 14 (92-105); assay: pepscan ELISA
Method: as §3

[10] = target: T13, α-synuclein peptide 16 (106-119); assay: pepscan ELISA
Method: as §3

[11] = target: T14, α-synuclein peptide 15 (99-112); assay: pepscan ELISA
Method: as §3

[12] = target: T15, α-synuclein peptide 1 (1-14); assay: pepscan ELISA
Method: as §3

[13] = target: T16, α-synuclein peptide 9 (57-70); assay: pepscan ELISA
Method: as §3

[14] = target: T17, α-synuclein peptide 12 (78-91); assay: pepscan ELISA
Method: as §3

[15] = target: T18, α-synuclein peptide 8 (50-63); assay: pepscan ELISA
Method: as §3

[16] = target: T19, α-synuclein peptide 2 (8-21); assay: pepscan ELISA
Method: as §3

| Binder | binding result (β-synuclein fibrils) | binding result (IAPP fibrils) | binding result (β-synuclein monomers) | binding result (A-beta monomers) | binding result (fibrils of NAC (61-78)) | binding result (A-beta fibrils) | binding result (IAPP monomers) | binding result (γ-synuclein fibrils) | binding result (fibrils of NAC (61-95)) | binding result (γ-synuclein monomers) | binding result [1] | binding result [2] | binding result [3] | binding result [4] | binding result [5] | binding result [6] | binding result [7] | binding result [8] | binding result [9] | binding result [10] | further results |
| --- | --- | --- | --- | --- | --- | --- | --- | --- | --- | --- | --- | --- | --- | --- | --- | --- | --- | --- | --- | --- | --- |
| Syn-O3 (antibody, IgG1, V domains shown, same VH and VL as Syn-O1, Syn-O2, Syn-O4; also called mAb Syn-O3) VH: EVQLVESGGGLVQPKGSLKLSCAASGFTFNTYAMHWVRQAPGKGLEWVARIRSKSSNYATYYADSVKDRFTISRDDSQSMLYLQMNNLKTEDTAMYYCVRPLKWYFDVWGTGTTVTVSS VL: QIVLTQSPAILSASPGEKVTMTCSASSTVNYMHWYQQKSGTSPKIWIYDTSKLASGVPARFSGSGSWTSYSLTISSMEAEDAATYYCQQWNSNPPTFGAGTKLELK | no binding (tested: 50 ng spotted) | no binding (tested: 50 ng/ml antibody, 50 ng spotted) | no binding (tested: 50 ng spotted) | no binding (tested: 50 ng/ml antibody, 50 ng spotted) | no binding (tested: 50 ng spotted) | no binding (tested: 50 ng/ml antibody, 50 ng spotted) | no binding (tested: 50 ng/ml antibody, 50 ng spotted) | no binding (tested: 50 ng spotted) | no binding (tested: 50 ng spotted) | no binding (tested: 50 ng spotted) | no binding (tested: 100 ng/ml antibody, 500 ng/well peptide) | no binding (tested: 100 ng/ml antibody, 500 ng/well peptide) | no binding (tested: 100 ng/ml antibody, 500 ng/well peptide) | no binding (tested: 100 ng/ml antibody, 500 ng/well peptide) | no binding (tested: 100 ng/ml antibody, 500 ng/well peptide) | no binding (tested: 100 ng/ml antibody, 500 ng/well peptide) | no binding (tested: 100 ng/ml antibody, 500 ng/well peptide) | no binding (tested: 100 ng/ml antibody, 500 ng/well peptide) | no binding (tested: 100 ng/ml antibody, 500 ng/well peptide) | no binding (tested: 100 ng/ml antibody, 500 ng/well peptide) | binding result [11]: no binding (tested: 100 ng/ml antibody, 500 ng/well peptide); binding result [12]: no binding (tested: 100 ng/ml antibody, 500 ng/well peptide); binding result [13]: no binding (tested: 100 ng/ml antibody, 500 ng/well peptide); binding result [14]: no binding (tested: 100 ng/ml antibody, 500 ng/well peptide); binding result [15]: no binding (tested: 100 ng/ml antibody, 500 ng/well peptide); binding result [16]: no binding (tested: 100 ng/ml antibody, 500 ng/well peptide) |
| Syn-O4 (antibody, IgG1, V domains shown, same VH and VL as Syn-O1, Syn-O2, Syn-O3; also called mAb Syn-O4) VH: EVQLVESGGGLVQPKGSLKLSCAASGFTFNTYAMHWVRQAPGKGLEWVARIRSKSSNYATYYADSVKDRFTISRDDSQSMLYLQMNNLKTEDTAMYYCVRPLKWYFDVWGTGTTVTVSS VL: QIVLTQSPAILSASPGEKVTMTCSASSTVNYMHWYQQKSGTSPKIWIYDTSKLASGVPARFSGSGSWTSYSLTISSMEAEDAATYYCQQWNSNPPTFGAGTKLELK | no binding (tested: 50 ng spotted) | no binding (tested: 50 ng/ml antibody, 50 ng spotted) | no binding (tested: 50 ng spotted) | no binding (tested: 50 ng/ml antibody, 50 ng spotted) | no binding (tested: 50 ng spotted) | no binding (tested: 50 ng/ml antibody, 50 ng spotted) | no binding (tested: 50 ng/ml antibody, 50 ng spotted) | no binding (tested: 50 ng spotted) | no binding (tested: 50 ng spotted) | no binding (tested: 50 ng spotted) | no binding (tested: 100 ng/ml antibody, 500 ng/well peptide) | no binding (tested: 100 ng/ml antibody, 500 ng/well peptide) | no binding (tested: 100 ng/ml antibody, 500 ng/well peptide) | no binding (tested: 100 ng/ml antibody, 500 ng/well peptide) | no binding (tested: 100 ng/ml antibody, 500 ng/well peptide) | no binding (tested: 100 ng/ml antibody, 500 ng/well peptide) | no binding (tested: 100 ng/ml antibody, 500 ng/well peptide) | no binding (tested: 100 ng/ml antibody, 500 ng/well peptide) | no binding (tested: 100 ng/ml antibody, 500 ng/well peptide) | no binding (tested: 100 ng/ml antibody, 500 ng/well peptide) | binding result [11]: no binding (tested: 100 ng/ml antibody, 500 ng/well peptide); binding result [12]: no binding (tested: 100 ng/ml antibody, 500 ng/well peptide); binding result [13]: no binding (tested: 100 ng/ml antibody, 500 ng/well peptide); binding result [14]: no binding (tested: 100 ng/ml antibody, 500 ng/well peptide); binding result [15]: no binding (tested: 100 ng/ml antibody, 500 ng/well peptide); binding result [16]: no binding (tested: 100 ng/ml antibody, 500 ng/well peptide) |
